± gives the half width of the 95% confidence interval.
How the values were obtained:
[1] = folding stability dG unfold from trypsin proteolysis; higher = more stable
Summary of the method: (§1)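 Mini-proteins designed to be under 80 residues and free of cysteine were carried in a PA-tagged cDNA display construct and digested with trypsin and with chymotrypsin. Each protease was applied at 11 threefold-diluted concentrations, alongside a no-protease condition, before sequencing. K50 came from Bayesian fitting of the sequencing counts, and unfolding free energy was obtained by comparing it with a sequence-predicted unfolded-state K50 and a shared folded-state K50, for each protease separately or for both together. Designs were retained only if their AlphaFold2 dimer inter-PAE exceeded 15.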

[2] = folding stability dG unfold (combined trypsin and chymotrypsin); higher = more stable
Summary of the method: as §1

[3] = folding stability dG unfold from chymotrypsin proteolysis; higher = more stable
Summary of the method: as §1

Sequence | folding stability dG unfold [1] [kcal/mol] | folding stability dG unfold [2] [kcal/mol] | folding stability dG unfold [3] [kcal/mol]
SAGPTFEIVSVEEVDGKTYIRIRLPNGRIVTARITEVKRLGPDGKLYIKVEPGMSEEELKALLPPEVLKSAG [r5_462_TrROS_Hall] | 2.29 ± 0.053 | 2.63 ± 0.042 | 2.825 ± 0.02
SAGMKPLSDPEAQELAKEVAEKGYLVYTLKYPDGTVITVVSKSEEEVEALLEKSPYPIKEIVIIPPEKPSAG [r5_481_JUSTAS] | 1.16 ± 0.082 | 1.48 ± 0.12 | 1.74 ± 0.098
SAGGSAMTITVTLTFKSEEEALAAIRELAEALGLEIESVEIRYDPETEEVTVTATIRLPPPPPELLSAGGSA [r15_254_TrROS_Hall] | 2.73 ± 0.16 | 2.75 ± 0.11 | 2.62 ± 0.033
SAMYKIRLKNGEEIELEGMSIEELEKLFPDVELEIEKVEKVPVVKAPSKEEAEELAKKLPPGAKIIVEDSAG [r14_445_TrROS_Hall] | 0.287 ± 0.14 | 0.324 ± 0.3 | 0.233 ± 0.36
SAGGSAGGSAKEKYILLKVKPGQKVEIEYENGEKKEVEVLEDGYLLIKVKEKNAKIKIKIKSAGGSAGGSAG [r3_334_TrROS_Hall] | 1.85 ± 0.17 | 2.76 ± 0.32 | 2.82 ± 0.051
SAGGAPTVELKTETIETEDGTYLVVEAKVPTPDVTLEIKLPHGGETEVVYDPETGTATVVFRLPPDWLSAGG [r13_380_TrMRF] | 1.72 ± 0.088 | 2.25 ± 0.15 | 2.51 ± 0.053
SAGGSAGGSAGGSPEFKIVSVEYDPETGLVTLEIEREDGSTLRFVFDKDGKLVRVEELPSAGGSAGGSAGGS [r4_259_TrROS_Hall] | 3.31 ± 0.22 | 4.44 ± 0.19 | 4.56 ± 0.15
SAGGSAGGSAGIVIPLDGRPIVIDMYPNGYMRIEVEPPNGKKKTRTFPGAPIEDILKAIKSAGGSAGGSAGG [r11_934_TrROS] | -0.695 ± 0.71 | -0.204 ± 0.28 | -0.0199 ± 0.12
PFPIYVKIERDGKPVREEPIPMDELQEMPVEEVIEYARELLRQFPGRKYKVEVYFPGGPREFEIKDPEDIKS [r1_477_TrROS] | 0.496 ± 0.071 | 1.28 ± 0.16 | 1.58 ± 0.14
SAGGSAGGSAGGDVKVTVTVTVDPETGEPVVEVTLELPGDRAIRARFTPDGRLLSVEEVDSAGGSAGGSAGG [r7_454_TrMRF] | 3.79 ± 0.25 | 3.51 ± 0.21 | 3.01 ± 0.16
SAAVTPLTETIPYTPEEARAAAEEVAAARAAALRAAGYRVLSVDVVEMEPGEYVIRMRLTVAAPDEALPSAG [r14_973_JUSTAS] | 2.22 ± 0.033 | 2.86 ± 0.06 | 3.12 ± 0.036
SAGGSAGGSAGGSITITTEPLPSGGRRVTVTLPGSSVVLELEFSPDETEEEVRAAVEAASAGGSAGGSAGGS [r10_825_JUSTAS] | 1.47 ± 0.035 | 1.93 ± 0.09 | 2.12 ± 0.06
SAGGSAGGSAGMTLEIEVDPDNKVIELKIYIGGKPVEMTIVVTPNSGYIRIPDGGWIPIESAGGSAGGSAGG [r11_395_TrROS] | 2.1 ± 0.053 | 2.85 ± 0.083 | 3.37 ± 0.065
SAGGSAMVTPEERVEAALAYIRGKYGFPLSATPAQLREAGLPVRVELTVTDADGRPLATVTLEIPGSAGGSA [r15_391_TrMRF] | 1.39 ± 0.037 | 1.65 ± 0.07 | 1.78 ± 0.089
SAMSVKTYSSTSVDPKTGKTYTTTTTVTPKPEPPWLVTTTTYLVDPATGTTTLLSTTTTTLDPNDPTLLSAG [r14_939_JUSTAS] | 2.11 ± 0.071 | 2.45 ± 0.084 | 2.67 ± 0.11
SAGGSAGGSAGGSNIPSDSTVTSKGSSDTTTSTYYNPETGTTLVTTTPPDGVPTTTTTASAGGSAGGSAGGS [r10_592_JUSTAS] | 0.621 ± 0.059 | 0.159 ± 0.12 | -0.398 ± 0.36
SAGGSAGGSAGGKPKKILNIELVLKGKDGKKYKLKIEIYNYPDKPKIYITFPDGTTIEASAGGSAGGSAGGS [r10_404_TrMRF] | 3.54 ± 0.13 | 5.15 ± 0.21 | 5.28 ± 0.19
SAGGMTTTTVEVKRLPNGSIERTLKTTVPLPNGDLVVTTTKSIVYREDGKVVKEEVLETETTLLPATSAGGS [r8_36_JUSTAS] | 2.58 ± 0.082 | 2.77 ± 0.074 | 2.92 ± 0.077
SAGGSAGGSAGPITYRLEIRYEIERIEVRVYPGPEGPLVGEFRIEVRLEVRVEALPPEETSAGGSAGGSAGG [r11_24_TrMRF] | 3.69 ± 0.17 | 4.53 ± 0.16 | 4.88 ± 0.12
SANKNFYIIQIKWEIDGPDGRTLSFMIIVPRDDPDEFLKEAKDFIAEEFGYPIKKIEVDIHRIPPEDFPSAG [r14_104_TrROS] | 2.76 ± 0.14 | 3.01 ± 0.17 | 3.16 ± 0.07
SAGGSAMTAEELARKLFPGAEVEVEVRLERNEDGSLSLRVEVRVRAAPPPEEEEVEEPEEVEEEEESAGGSA [r15_417_TrROS_Hall] | 2.78 ± 0.16 | 2.2 ± 0.28 | 1.99 ± 0.052

Sequence | folding stability dG unfold [1] [kcal/mol] | folding stability dG unfold [2] [kcal/mol] | folding stability dG unfold [3] [kcal/mol]
SAGGSAMKKTTATFYVRPDSLTVEIELGEKTKKLTFDPSVSIEEVKASLPDYVDEVKVKPASPSLSSAGGSA [r15_1058_JUSTAS] | -0.43 ± 0.24 | 0.242 ± 0.14 | 0.529 ± 0.27
SAGMVVRITVLPEGEEREFVVAATPEEARELLEELGYEVEEFPELPVLVARRPDAVVLVEFIPVAPDALSAG [r5_248_TrMRF] | 1.59 ± 0.032 | 1.83 ± 0.039 | 1.999 ± 0.015
SAGGMKVVIYVKDPEKFLKAIEEIENIPLENVKFEPLEGDYYKYEFPNLEAVEELIKKGYDILKIEPSAGGS [r16_381_TrMRF] | 1.96 ± 0.09 | 2.34 ± 0.083 | 2.57 ± 0.03
SAGPTVRQETFGEKYRIEVEVSPDGTVKVKIVNENGEVTELEGKVEPGKPVVLPFPLDGHVVNVVVLPASAG [r5_237_TrMRF] | 1.54 ± 0.089 | 2.52 ± 0.13 | 2.91 ± 0.06
SAGGSAGGSKPELVIPITFPVLVKNPLDGKIYPVKVEIHIFYYPDKPIIEITLINPDGKPFPFSAGGSAGGS [r12_283_TrMRF] | 2.13 ± 0.064 | 1.93 ± 0.066 | 1.67 ± 0.038
SAGGSAGGSASSSTFPRRNYTVTITTDPSNGKKTVTVLNPATGEATTLTPEELEADPVLAEAVSAGGSAGGS [r12_817_JUSTAS] | 1.05 ± 0.017 | 1.51 ± 0.043 | 1.8 ± 0.021
SPTQTITLTLPDRPVTVPLTAYPETGYVEITVTVTYPTGTKTYTFTVKAKSFEEVLAELSKLPEDFDINPSA [r9_713_TrMRF] | 1.83 ± 0.073 | 1.85 ± 0.052 | 1.81 ± 0.088
SAGGMKEITLPNGVKITEVIEKDGYYYIKIYNKKTGKVYEIKVKKGEKIEIKFPKGSTVTKIEIVKKSAGGS [r16_123_TrROS_Hall] | 1.7 ± 0.04 | 2.8 ± 0.095 | 3.24 ± 0.066
SAGGSAMTITEDGTLTLEIKVPEDAPEATVKVTVLTDGKTLGEADPATGKVTLKVPPDVEVKVEVASAGGSA [r15_180_TrMRF] | 1.09 ± 0.074 | 1.69 ± 0.13 | 1.87 ± 0.045
SAGMPLRTVKVLVTINDKTEEKTLSEEELKALIESGELELLGKEPEENIVYVYKKVPPPVGSKTKKSLLSAG [r5_868_JUSTAS] | 0.71 ± 0.29 | 1.64 ± 0.27 | 1.94 ± 0.17
SAGGEIKPGQTVRIRITVYNLETGEEKTIEVEVPAGKTLEEVLAELFDNLSEEERKNLVVRIEIEPVSAGGS [r16_321_TrROS_Hall] | 4.38 ± 0.15 | 4.9 ± 0.26 | 5.02 ± 0.12
SAGGSAGGSAGGKYKILKIEKYKLPNGGYYYKALVYEEENGEWKEIYAKANSAKNFKFESAGGSAGGSAGGS [r10_326_TrMRF] | 0.828 ± 0.049 | 1.08 ± 0.1 | 1.16 ± 0.11
SAGGMKVKKIPVIVKILRKKDKKPIKEIPALAYKVDDKIYLVFEKPKDIKIAKEIAEKTGLPIEIYPSAGGS [r16_327_TrMRF] | 1.01 ± 0.025 | 1.66 ± 0.066 | 2.02 ± 0.062
SAGGSAGGSKKKKKKVKKKKVYRVKIKTKDGKLIEIEVSVEDLEKIKKAAEKAGFEIVEIEPVSAGGSAGGS [r12_891_TrROS_Hall] | 2.39 ± 0.076 | 3.42 ± 0.2 | 3.86 ± 0.18
SAGGSAGGSAGGMWYIRITYDNGREIWIPIGDPITIKHKDGKPVQIKEVEVYPLPPGQISAGGSAGGSAGGS [r10_20_TrROS] | 2.04 ± 0.064 | 2.58 ± 0.11 | 2.72 ± 0.032
SAGGSAGGSGSMTTTTDPNSDITVSSIGSPSGPPVTATLNPKTGTVTVTVGGTPVTIPLDALSSAGGSAGGS [r12_650_JUSTAS] | 0.331 ± 0.059 | 0.987 ± 0.045 | 1.32 ± 0.034
SAGGGSVSITLELEEEEEIEEIVNEKGIPEPLEKRIKKKVTITISPPPTLSSSSSVTGLAEKAIEEKSAGGS [r16_359_JUSTAS] | -0.425 ± 0.22 | 0.101 ± 0.31 | 0.511 ± 0.069
SAMSEKDMEPIETFELPETNVKIELYYNKKTKKYVIKIKNKKTKKTKTIVIKSKDGKITLEELKKLIKKSAG [r14_948_TrROS_Hall] | 2.93 ± 0.24 | 3.61 ± 0.31 | 3.42 ± 0.077
SAGGWTIREILEKNPNLREFAKEGWTIEIYYPNGKSGRVKIKEGSADDILDDINKNFPGPVEISITKSAGGS [r16_655_TrROS] | 0.659 ± 0.072 | 0.573 ± 0.14 | 0.437 ± 0.23
SAGGSAGGSAGGSDGALIFIIHIKMEMELEPNPDGPPKWDMDWDIEPTWIQIDDPEDFKSAGGSAGGSAGGS [r4_450_TrROS] | 1.59 ± 0.13 | 2.19 ± 0.21 | 2.48 ± 0.15
SAGGSAGGSAGGSKKKPPKKITLVVWNEETGELTKVEFDAETKEVKVEKVPIKPGDILLSAGGSAGGSAGGS [r4_409_TrROS_Hall] | 1.18 ± 0.034 | 0.988 ± 0.21 | 0.946 ± 0.062

Reference: the supplement of paper PMC12764529
